Measurements: publication PMC4030970, “Structural Evidence for the Tetrameric Assembly of Chemokine CCL11 and the Glycosaminoglycan Arixtra™” (Biomolecules, 2013)
Where “and” joins values, the source holds several entries; their conditions need not be identical. Identical values can stand only once.

Experiments:
[1] = biological target: human chemokine CCL11 (Eotaxin-1) (human) (UniProt P51671); test: native MS; ion mobility MS (Waters Synapt G2 HDMS), nanospray; CCL11 alone at 20 μM in 250 mM ammonium acetate (pH 6.8), native conditions
[2] = biological target: human chemokine CCL11 (Eotaxin-1) (human) (UniProt P51671); test: native MS; ion mobility MS (Waters Synapt G2 HDMS), nanospray; equimolar (1:1) mixture of CCL11 and Arixtra in 250 mM ammonium acetate; oligomers seen unbound and bound to Arixtra; MS/MS of the [tetramer+Arixtra]12+ ion gives monomer and trimer+Arixtra
[3] = biological target: human chemokine CCL11 (Eotaxin-1) (human) (UniProt P51671); test: crystal structure; very preliminary X-ray structure of the CCL11 tetramer bound to Arixtra; de-twinned; Rfactor 17.6%, Rfree 26.7%; not deposited

Chain of human chemokine CCL11 (Eotaxin-1), P51671 24-97 (natural protein; other documents disagree on this pair) (P51671 24-97): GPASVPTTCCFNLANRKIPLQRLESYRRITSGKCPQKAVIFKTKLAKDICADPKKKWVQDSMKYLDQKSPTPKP

Substance: human chemokine CCL11 (Eotaxin-1), P51671 24-97 (natural protein; other documents disagree on this pair)
- stoichiometry N [1]: 4 and 2
- stoichiometry N ([2]; Dimer + Arixtra): 2
- stoichiometry N ([2]; Tetramer + Arixtra): 4
- stoichiometry N [3]: 4
